Numbering of substitutions follows the chain as printed.
What was measured:
[1] = molecular target: T1, PPR10 ND variant (maize, UniProt B8Y6I0 96-786, N349D); test: EMSA; EMSA: radiolabeled RNA 15 pM, protein 0, 5, 10, 20 nM; binding buffer and temperature by reference [12]; protein stock in 400 mM NaCl, 50 mM Tris-HCl pH 7.5, 5; conditions: protein: recombinant; tags: MBP fusion removed by TEV cleavage; label: radiolabeled; single-stranded
T1 sequence: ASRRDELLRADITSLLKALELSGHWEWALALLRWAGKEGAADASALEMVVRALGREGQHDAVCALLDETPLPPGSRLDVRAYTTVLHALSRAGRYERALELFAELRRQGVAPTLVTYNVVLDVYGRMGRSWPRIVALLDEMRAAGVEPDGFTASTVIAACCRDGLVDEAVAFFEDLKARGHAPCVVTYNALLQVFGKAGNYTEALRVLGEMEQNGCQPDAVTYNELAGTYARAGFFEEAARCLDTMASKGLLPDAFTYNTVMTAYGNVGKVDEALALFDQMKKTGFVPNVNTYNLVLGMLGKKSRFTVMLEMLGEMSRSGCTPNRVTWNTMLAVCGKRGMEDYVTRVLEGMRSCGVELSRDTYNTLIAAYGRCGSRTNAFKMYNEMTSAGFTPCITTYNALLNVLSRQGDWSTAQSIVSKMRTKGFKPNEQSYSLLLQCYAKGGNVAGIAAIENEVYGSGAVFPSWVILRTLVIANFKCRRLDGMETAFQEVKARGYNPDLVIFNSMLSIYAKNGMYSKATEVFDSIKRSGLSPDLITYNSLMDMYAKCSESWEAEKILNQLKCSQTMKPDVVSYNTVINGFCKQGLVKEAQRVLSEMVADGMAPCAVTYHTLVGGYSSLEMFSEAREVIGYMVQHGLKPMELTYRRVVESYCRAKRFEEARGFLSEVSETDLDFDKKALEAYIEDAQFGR

[2] = molecular target: T2, PPR10 NS variant (maize, UniProt B8Y6I0 96-786, D314S;N349S); test: as above; conditions: protein: recombinant; tags: MBP fusion removed by TEV cleavage; label: radiolabeled; single-stranded
T2 sequence: T1 sequence with D219S, D254S

[3] = molecular target: T3, PPR10 NN variant (maize, UniProt B8Y6I0 96-786, D314N); test: EMSA; affinity similar to CC RNA; EMSA: radiolabeled RNA 15 pM, protein 0, 5, 10, 20 nM; binding buffer and temperature by reference [12]; protein stock in 400 mM NaCl, 50 mM Tris-HCl pH 7.5, 5; conditions: protein: recombinant; tags: MBP fusion removed by TEV cleavage; label: radiolabeled; single-stranded
T3 sequence: T1 sequence with D219N, D254N

[4] = molecular target: T3, PPR10 NN variant; test: EMSA; affinity similar to UU RNA; EMSA: radiolabeled RNA 15 pM, protein 0, 5, 10, 20 nM; binding buffer and temperature by reference [12]; protein stock in 400 mM NaCl, 50 mM Tris-HCl pH 7.5, 5; conditions: protein: recombinant; tags: MBP fusion removed by TEV cleavage; label: radiolabeled; single-stranded
[5] = molecular target: T4, rPPR10 wild-type (maize, UniProt B8Y6I0 96-786); test: SV-AUC; 3 uM protein, 1.5 or 3 uM RNA; 1:1 monomer complex; EMSA: radiolabeled RNA 15 pM, protein 0, 5, 10, 20 nM; binding buffer and temperature by reference [12]; protein stock in 400 mM NaCl, 50 mM Tris-HCl pH 7.5, 5; conditions: protein: recombinant; tags: MBP fusion removed by TEV cleavage; single-stranded
T4 sequence: T1 sequence with D254N

Binder: GUAUUCUUAACCAUUUC (ssRNA) [UU RNA]
- Kd [1]: ~3 nM
- Kd [2]: 20 nM
- binding result [3]: binds

Binder: GUACCCUUAACCAUUUC (ssRNA) [CC RNA]
- Kd [1]: 17 nM
- Kd [2]: 9 nM
- binding result [4]: binds

Binder: GUAUCCUUAACCAUUUC (ssRNA) [PPR10 17-nt minimal RNA ligand]
- binding result [5]: binds

— PMC3420917, “A Combinatorial Amino Acid Code for RNA Recognition by Pentatricopeptide Repeat Proteins” (PLoS Genetics, 2012)
